In doi:10.1101/870667:
Where two headings read alike, the source gives them in different places.

Tests used:
[1] = target: MLL1 core complex (MWRAD2 holo-complex) (human) (UniProt Q03164); test: AUC
[2] = target: MLL1 core complex (MWRAD2 holo-complex) (human) (UniProt Q03164); test: AUC; remark: listed apart in the source

- stoichiometry N [1]: 2
- stoichiometry N [2]: 18
Substance: MLL1 core complex (MWRAD2 holo-complex) (from UniProt Q03164;P61964;Q15291;Q9UBL3-3;Q9C005)
